Measured values: the nanobody polyreactivity screen of Harvey et al. (2022)

Test: yeast display, Sf9 membrane polyspecificity reagent, FACS + sequencing; frameworks hold sequencing errors
How it was run: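 Sorting gates, low and high (top ~1%), were placed on anti-HA fluorescence to track expression and on streptavidin fluorescence to track reagent binding. A clone's polyreactivity label is taken from the gate it came out of. The reagent was 10% biotinylated, detergent-solubilized Sf9 membrane, applied for 1 hour at 4 °C to galactose-induced yeast display cells.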

Row | Sequence | polyreactivity (PSR sort gate)
1 | QVQLVESGGGLVQAGGSLRLSGAASGRIFYYNTMGWYRQAPGKEWEVVAAISSTAYTTYADSVKGRFTISRDNAKNTVYLQMYSLKPEDTAVYYCAAYRYSRYRQRYNYWGQGTQVTVSS | high polyreactivity
2 | QVQLVESGGGLVQAGGSLRLSGAASGRTCGTNAMGWSRQAHGKERELVAAISSSGGSTYYADSVKGRFTISRDNAKNTVYLQMISQKPEDTAVYYCAQGWHRGVGFGYWGQGTQVTVSS | high polyreactivity
3 | QVQLVESGGGLVQAGGSLRLSGAASGSTFGWYVMGWYRQAPGKERELVASITGSGGSTYYADSVKGRFTISRDHAKNTVYLQMNSLNPEDTAVYYCAAHTGWYDDWTHDSWGQGTQVTVSS | low polyreactivity
4 | QVQLVESGGGLVQAGGSLRLSGAASGSTFTEYAMGWYRQAPGKEREFVAAITESGASTYYADSVKGRFTISRDNAKNTVYLQRNSLKPEDTAVYYCNAGYWRFIDSYDYWGQGTQVTVSS | high polyreactivity
5 | QVQLVESGGGLVQAGGSLRLSGAAWSIFYLNAMGWYRKAPGKERELVAAISSAGSTYYADSVKGRFTISRDNAKNTVYLQMNSLKPEDTAVYYCAAYWYDSPGVTEIWYDYWGQGTQVTVSS | low polyreactivity
6 | QVQLVESGGGLVQAGGSLRLSGDASGRIFRLYAMGWYRQAPGKEREFVAAISRSGGRTYYADSVKGRFTISRDNAKNTVYLQMNSLKPEDTAVYYCAAVYRQCGDYYSRDYYWGQGTQVTVSS | high polyreactivity
7 | QVQLVESGGGLVQAGGSLRLSLAASGSIFRAYVMGWYRPAPGKERELVAAITRSGARTYYADSLKGRFTLSRDNAKNTVYLQMNSLKPEDTAVYYCAAETSGSQSKLYYYWGQGTQVTVSS | high polyreactivity
8 | QVQLVESGGGLVQAGGSLRLSRAASGSTLSLYAMGWYRQAPGKERELVAAITSSGGTYYADSVKGRFTISRDNAKNTVYLQMNSLKPEDTAVYYCAADPRSYFTSEYWGQGTQVTVSS | high polyreactivity
9 | QVQLVESGGGLVQAGGSLRLSSAASGFIFDYSAMGWYRQAPGKERELVAAITRDGGGTYYADSVKGRFTISRDNANNTVYLQMNRLKPEDTAVYYCAARRAVRLYYWGQGTQVTVSA | high polyreactivity
10 | QVQLVESGGGLVQAGGSLRLSSAASGFNSSRNAMGWYRQAPGKERELVATISSGGDTYYADSVKGRFTISRDNAKNTVYLQMNSLKPEDTAVYYCATDRAERTGYTRYVKTYNYWGQGTQVTVSS | low polyreactivity
11 | QVQLVESGGGLVQAGGSLRLSSAASGFTFDCNTMGWYRQAPGKERELVALISSTGGRTYYADSVQGRFSISRDNAKNTVYLQMNSLKPEDTAGSYCNKRRRNPVGYDYWGLGTQVTVSS | high polyreactivity
12 | QVQLVESGGGLVQAGGSLRLSSAASGFTFQGYVMGWYRQAPGKERELVAAISWSGGSTYYADSVKGRFTISRDTAKNTVYLQMNSLKPEDTAVYYCAAVTRFYTKYYWGQGTQVTVSS | high polyreactivity
13 | QVQLVESGGGLVQAGGSLRLSSAASGFTFRAYAMGWYRQAPGKERELVAGISTRGGRTYYADSVKGRFTISRDNAKNTVYLQMNSLKPEDTAVYYCNAVDKTGKYDYWGQGPQVTVSS | high polyreactivity
14 | QVQLVESGGGLVQAGGSLRLSSAASGFTFRYYAMGWYRQAPGKERELVAAISWSGGRTYYADSVKGRFTISRDNAKYTVYLQMNILKPEDTAVYYCAADGYPYFYGDFDYSGQGTQVTVSS | high polyreactivity
15 | QVQLVESGGGLVQAGGSLRLSSAASGFTFSAYAMGWYRQAPGKEREMVATITSGGSTNYADSVKGRFTISRDNAKNTVYLQMNSLIPEDTAVYYCAADVGWLYYYPKYYYWGQGTQVTVSW | low polyreactivity
16 | QVQLVESGGGLVQAGGSLRLSSAASGFTLGYNAMGWYRQAPGKERELVAGITWSGGSTSYADSVKGRFTISRDNAKNTVYLQMNSLKPEDTAVYYCAKLRRYSGWLPWPYAYDYWGQGTQVTVSS | high polyreactivity
17 | QVQLVESGGGLVQAGGSLRLSSAASGGIFFIYVMGWYRQAPGKERELVAAISWSGGDTYYADSVQGRFTISRDNAKNTVYVQMNSLKPEDTAVYYCAARYYYLGTRYGYWGQGTQVTVSS | low polyreactivity
18 | QVQLVESGGGLVQAGGSLRLSSAASGGIFRYYAMGLYRQAPGKERELVAAITSSGTSTYYADSVKGRFTISRDYAKNTVYLQMNSLKPEDTAVYYCARVVRPTDGDYWGLGTQVTVSS | high polyreactivity
19 | QVQLVESGGGLVQAGGSLRLSSAASGGILPIYAMGWYRQAPGKERELVATITGSGGGTYADSVKGRFTISRDNAKNTVYLQMNSLKPEDTAVYYCNADLGPVGHIDGYSYYDYDYWGQGTQVTVSS | low polyreactivity
20 | QVQLVESGGGLVQAGGSLRLSSAASGIIFDYNAMGWYRQAPGKERELVAAISYSGDSTYYADSVKGRFTISRDNAKNTVYLQMNSLKPEDTAVYYCAAVIYFGWWYVYTEDDYWGQGTQVTVSS | high polyreactivity
21 | QVQLVESGGGLVQAGGSLRLSSAASGIIFFFYAMGWYRQAPGKERELVAVITGSGDSTFYADSVKGRFTISRDNAKNTVYLQMNSLKPEDTAVYYCNARQVSGGYYYWGQGTQVTVSS | low polyreactivity
22 | QVQLVESGGGLVQAGGSLRLSSAASGIIFTYYAMGWYRQAPGKERELVAAISSGGGSTYYADSVKGRFTISRDNAKNTVYLQMNSLKPEDTAVYYCNADYYFVYTYLHDYWGQGTQVTVSS | low polyreactivity

Row | Sequence | polyreactivity (PSR sort gate)
23 | QVQLVESGGGLVQAGGSLRLSSAASGITFIRYAMGWYSQAPGKERELVAAISSGGSTNYADSVKGRFTISRDNAKNTVYLQMNSLKPEDTAVYYCAARYYWSFAYDYWGQGTQVTVSS | low polyreactivity
24 | QVQLVESGGGLVQAGGSLRLSSAASGITLTANAMGCYRQAPGKERELVAAISRGGSTYYADSVKGRFTISRDNAKNTVYLQMNSLKPEDTAVYYCNKAGGYWYAKRDYDYWGQCTQVTVSS | high polyreactivity
25 | QVQLVESGGGLVQAGGSLRLSSAASGLIFWFYAMGWYRQAPGKERELVAAIDTDGGSTYYADSVKGRFTISRDNAKNTVYLQMNSLKPEDTAVYYCAATFAAYTQQTFYYWGQGTQVTVSS | low polyreactivity
26 | QVQLVESGGGLVQAGGSLRLSSAASGLNFQRNTMGWSRQAPVKERELVAAISRSGGSTYYADSVKGRFTISRDNAKNTVYLQMNSLKPEDTAVYYCAALIFRHRGKDDDYWGQGTQVTVSS | high polyreactivity
27 | QVQLVESGGGLVQAGGSLRLSSAASGLTFLGYTMGWYRQAPGKARELVAAINYSGGSTYYADSVKGSFTISRDNAKNTVYLQMNSLKPEDPAVYYCAARRAVSGGVRMYYWGQGTQVTVSS | high polyreactivity
28 | QVQLVESGGGLVQAGGSLRLSSAASGLTFQEYAMGWYRQAPGKERELVAAISWSGGSTYYADSVKGRFTISRDNAKNTVYLQMNSLKPEDTAVYYCAAEAYEEYITGWYAYDYWGQGTQVTVSS | high polyreactivity
29 | QVQLVESGGGLVQAGGSLRLSSAASGLTFRYYALGWYRQAPGKERELVAAITRRGSTYYADSVKGRFTISRDNAKNTVYLQMNSLKPEDTAVYYCATVTGFHSSPLRDLDYWGQGTQVTVSS | high polyreactivity
30 | QVQLVESGGGLVQAGGSLRLSSAASGNIFYGYAIGWYRQAPGKERELVARINWSGTRTYYADSVKGRFTISRDNAKNTVYLQMNSLKPEDTAVYYCAADRYRKYYRRYYYWGQGTQVTVSS | high polyreactivity
31 | QVQLVESGGGLVQAGGSLRLSSAASGNIIKYYAMGCYRQEPGKERELVAAINWSGGSTYYADSVKGRFTISRDNAKNTVYLQMNSLKPEDTAVYYCNVFSSGYYLFDYWGQGTQVTVSS | high polyreactivity
32 | QVQLVESGGGLVQAGGSLRLSSAASGNTFDSKAMGWYRQAPGKERELVAGISQGDGSTYADSVKGRFTISRDNAKNTVYFQMNSLKPEDTAVYYCAADRDYIMDYWGQGTQVTVSS | high polyreactivity
33 | QVQLVESGGGLVQAGGSLRLSSAASGRIFAKYAMGWYRQAPGKERELVAAISWGGGSTYYADSVKGRFTISRDNAKNTVYLQMNSLKPEDTAVYYCAARIPKQRDVRGSGMNYWGQGTQVTVSS | high polyreactivity
34 | QVQLVESGGGLVQAGGSLRLSSAASGRIFAVNAMGRYRQAPGKERELVASIRWSGGSTNYADSVKGRFTISRDNAKNTVYLQMNSLKPEDTAVYFCAAVIYLWGQGTQVTVSS | high polyreactivity
35 | QVQLVESGGGLVQAGGSLRLSSAASGRIFGTYAMGWYRQAPGKERELVAAITSGGRTYYADSVKGRFTISRDNAKNTVYLQMNSLKPEDNAVYYCARPSGYRKYYYWGQGTQVTVSS | high polyreactivity
36 | QVQLVESGGGLVQAGGSLRLSSAASGRIFIGNAMGWYRQAPGKERELVAAISKGGGSTYYADSVKGRFTISRDNAKNTVYLQMNSLKPEDTAVYYCNKLRYPLLPPKYYYWGQGTQVTVSS | high polyreactivity
37 | QVQLVESGGGLVQAGGSLRLSSAASGRIFLLNAMGWYRQAPGKERELVADISFNGGSTYYADSVKGRFTISRDNAKNSVYLQMNSLKPEDTAVYYCAVGSFGVSAYSYYYWGQGTQVTVSS | low polyreactivity
38 | QVQLVESGGGLVQAGGSLRLSSAASGRIFNGNAMGWSRQSPGKERELVAAISSGGRTYYADSVKGRFTISRDNAKNTVYLQMNSLKPEDTEVYYCAARVILTTYSRNYYYWGQGTQVTVSS | high polyreactivity
39 | QVQLVESGGGLVQAGGSLRLSSAASGRIFPGYAMGWYRQAPGKEREFVAAITRSGGRTYYADSVKGRFTISRDNAKNTVYVQMNSLKPEDTAVYYCNRVYEYWSEYDYWGQGTQVTVSS | high polyreactivity
40 | QVQLVESGGGLVQAGGSLRLSSAASGRIFPRYGMGWYRQAPGKERELVAAISIGGSTHYADSVKGRFTISRDNAKNTVYLQMNSLKPEDTAVYYCNKDIYVYWLFRLGMGYWGQGTQVTVSS | low polyreactivity
41 | QVQLVESGGGLVQAGGSLRLSSAASGRIFRPYAMGWYRPAPGKERELVAIRKSTGSTYYADSVKGRFTISRDNAKITVYLQMNSLKPEHTAVYYCAAPRDWDAGDYWGQGTQVTVSS | high polyreactivity
42 | QVQLVESGGGLVQAGGSLRLSSAASGRIFSRYTMGWYRQAPGKERELVAAISWIGTRTYYADSVKGRFTISRDNAKNTVYLQMNSLKPEDTAVYYCNAVFGGYYGYVSNYKFDYWGHGTQVTVSS | high polyreactivity
43 | QVQLVESGGGLVQAGGSLRLSSAASGRIFWPNTIGWYRQAPGKERELVAAISWSGGSTYYADSVKGRFTISRDNAKNTVYLQMNSLIPEDTAVYYFNARYPNTRKYDYWGQGTQVTVSS | high polyreactivity
